Substrate: O=C(O)[C@H](O)[C@@H](O)[C@@H](O)[C@H](O)CO
Assay: cells, lysate or membranes
Format: cell-based, Escherichia coli
Conditions: pH 6.5, 150 mM KCl, 25 °C, 30 s uptake, labelled compound, H+ symport

B1: DgoT (Escherichia coli) (protein)
chain: MVSGFAMPKIWRKLAMDIPVNAAKPGRRRYLTLVMIFITVVICYVDRANLAVASAHIQEEFGITKAEMGYVFSAFAWLYTLCQIPGGWFLDRVGSRVTYFIAIFGWSVATLFQGFATGLMSLIGLRAITGIFEAPAFPTNNRMVTSWFPEHERASAVGFYTSGQFVGLAFLTPLLIWIQEMLSWHWVFIVTGGIGIIWSLIWFKVYQPPRLTKGISKAELDYIRDGGGLVDGDAPVKKEARQPLTAKDWKLVFHRKLIGVYLGQFAVASTLWFFLTWFPNYLTQEKGITALKAGFMTTVPFLAAFVGVLLSGWVADLLVRKGFSLGFARKTPIICGLLISTCIMGANYTNDPMMIMCLMALAFFGNGFASITWSLVSSLAPMRLIGLTGGVFNFAGGLGGITVPLVVGYLAQGYGFAPALVYISAVALIGALSYILLVGDVKRVG
notes: full-length in pQE60, C-terminal thrombin site and decahistidine tag (kept in uptake assays, cut for crystallization); expressed in E. coli dgoT knock-out (Keio, lambda-DE3) for uptake, E. coli C41 for purification
For B1, which Km is on record?
The Km was 18 ± 4 µM.
